# Target: T1, Anti-CD28 Fab (SEQ ID NOs: 202, 203)
# T1 construct: biotinylated and captured on neutravidin coated plates in the phage ELISA
# Assay: phage binding ELISA, Fab on plate;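 note: clonal phage supernatant ELISA, wells preincubated with CD28 antigen or blocking buffer only, then bound phage detected using HRP-linked anti-M13 antibody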
# Method: After panning, phage infected bacteria were plated out and colonies picked into 96 well blocks. Clonal phage was then amplified and separated from bacterial cells via centrifugation.
# Clonal phage were harvested as crude supernatants and screened via standard ELISAs. […] Prior to the addition of clonal phage, wells were incubated with blocking buffer and CD28 antigen or blocking buffer alone. Without washing or aspirating, clonal phage supernatants were then added to the wells and incubated for a short time. Wells were then washed followed by detection of bound phage using a horse radish conjugated anti-M13 antibody. Clonal phage of interest were then sent for sequence analysis.
# T1 sequence (VH, as listed by the source, chain 1 of 2): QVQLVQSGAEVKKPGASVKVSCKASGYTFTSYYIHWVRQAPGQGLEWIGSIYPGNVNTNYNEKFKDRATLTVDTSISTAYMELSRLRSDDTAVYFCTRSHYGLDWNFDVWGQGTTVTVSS
# T1 sequence (VL, as listed by the source, chain 2 of 2): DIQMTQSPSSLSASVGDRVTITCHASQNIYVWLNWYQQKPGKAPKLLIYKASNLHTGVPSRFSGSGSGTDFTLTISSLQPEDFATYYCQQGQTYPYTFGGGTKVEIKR
row,Binder,"Anti-CD28 Fab (SEQ ID NOs: 202, 203) signal"
1,PCAAGAMWPWPVCL [Phage-986],1.95
2,LCKPGVPYQWPTCL [Phage-1018],1.78
3,YCSAGAQWPWPICL [Phage-1014],1.79
4,TCAAGASYQWPLCF [Phage-1015],1.79
5,SCAAGASYSWPACF [Phage-1016],1.79
6,SCSAGFHYPWPICL [Phage-1017],1.79
7,MCTAGALYNWPTCL [Phage-1019],1.78
8,TCAAGAHYPWPYCL [Phage-1020],1.77
9,WCAEFFNYHWPLCF [Phage-1021],1.77
10,TCSAGFSLQLSICL [Phage-1022],1.77
11,SCAAGASYPWPQCL [Phage-1023],1.77
12,LCTAGLAYNWPTCL [Phage-1024],1.77
13,GCAAGAHYPWPFCL [Phage-1025],1.76
14,TCAAGAVWEWPMCF [Phage-1026],1.76
15,TCAAGANYPWPLCL [Phage-1027],1.75
16,GCAAGANYPWPLCL [Phage-1069],1.59
17,MCAAGAMYAWPTCL [Phage-1028],1.75
18,TCAAGASFPWPWCL [Phage-1029],1.75
19,SCAAVFPYPWPPCF [Phage-1030],1.75
20,TCSAGAMYPWPWCV [Phage-1031],1.75
21,WCAAVFSYSWPLCL [Phage-1032],1.75
22,GCAAGFHYPWPLCL [Phage-1033],1.74
23,LCEEFFHYSWPVCL [Phage-1034],1.74

row,Binder,"Anti-CD28 Fab (SEQ ID NOs: 202, 203) signal"
1,TCAAGAAWPWPHCL [Phage-1035],1.73
2,MCSAGATYPWPMCL [Phage-1037],1.73
3,MCSAGATYPWPYCL [Phage-1057],1.64
4,TCAAGATYPWPSCL [Phage-1038],1.73
5,TCAAGATWPWPSCL [Phage-1065],1.61
6,TCAAGAVWGWPLCF [Phage-1039],1.73
7,TCAAGAHYAWPECF [Phage-1040],1.72
8,RCRAGFSYNWPYCM [Phage-1041],1.72
9,WCAAGATWPWPLCI [Phage-1042],1.7
10,LCSAGATYPWPWCM [Phage-1058],1.64
11,DCWGDAPYPWRVCL [Phage-1059],1.64
12,WCTAGFSYKLSICL [Phage-1060],1.63
13,LCSAGAMYQWPTCL [Phage-1061],1.63
14,LCSAGAMWQWPTCL [Phage-1097],1.51
15,TCSAGANYEWPWCF [Phage-1062],1.62
16,TCAAGAHYEWPMCY [Phage-1063],1.61
17,SCSAVFSYAWPTCL [Phage-1064],1.61
18,TCAAGAHWIWPWCE [Phage-1066],1.61
19,TCAAGAGWQWPMCF [Phage-1067],1.6
20,SCAAGATYEWPRCL [Phage-1068],1.6
21,SCAAGATYEWPICL [Phage-1074],1.59
22,TCAAGAYYAWPMCL [Phage-1070],1.59
23,SCAAGAPYPWPECL [Phage-1071],1.59

row,Binder,"Anti-CD28 Fab (SEQ ID NOs: 202, 203) signal"
1,TCSAGAAYAWPYCL [Phage-1072],1.59
2,LCAAGAAYPWPMCL [Phage-1073],1.59
3,SCAAGAQYGWPMCL [Phage-1076],1.59
4,WCAAGASYPWPWCL [Phage-1077],1.58
5,TCTAVFPYEWPRCL [Phage-1078],1.57
6,SCAAGATFHWPMCF [Phage-1079],1.57
7,TCSAGFSYKWPWCL [Phage-1080],1.57
8,TCAAGAMWTWPECL [Phage-1081],1.57
9,TCAAGATYPWPECM [Phage-1082],1.57
10,LCAAGFNYPWPLCL [Phage-1083],1.57
11,MCTAGATYPWPACL [Phage-1084],1.56
12,SCSAGAAWPWPWCL [Phage-1085],1.55
13,LCAEGFDYSWPMCL [Phage-1086],1.55
14,TCSAGATYSWPFCF [Phage-1087],1.55
15,SCKAGAPYYWPGCF [Phage-1088],1.54
16,TCSAVFSYTWSNCF [Phage-1089],1.54
17,TCAAGAAWEWPICF [Phage-1091],1.54
18,TCAAGAMWNWPQCY [Phage-1092],1.54
19,SCSAGAMYPWPMCL [Phage-1093],1.53
20,TCAAGASWEWPLCF [Phage-1094],1.52
21,TCSAGATYVWPDCF [Phage-1095],1.52
